# Assay: soluble on expression in E. coli; label from the status in PepcDB or PDB records
row,Sequence,soluble on expression in E. coli
1,MAHHHHHHMFVRSFCFLRKYGSKSKTPDLKTSFTKTTNFRKAEKISITTTDGEIVKGRGKIRRRTHSALKEAIGAMEHPAIWLWYPWRMNPEPPTPHMPQRRALKNVHGAVFNDLTPVQKKRQEQMLYGVNIPETRQMKFEEQHPLLAGALRKLEGQPKGFPFWYRKYPTRRHAYEYRFSIPVEMLDGYNDDVKKALSKGMMSIQEKQFAQEAMYMERYAEHDFDTTSPAVLAVKRALKCRVLRNHLLTNPHNNIIKTVLANTERKLNHALRRLRKVDFKKYWEIIRDHDVQDILQPPNLVTYRQGSYWKYDWNAGLAISTNLADVMDPRGLNGCVETGRSRSEVARDLGLSYTRPLHENEKKQLSHQAVYYERLAKFKMEQPEAARAMERERFVRKFSGMFVKMDIRSGAPDFPSTYRRLLGTKVVRWASKRHGPN,not soluble
2,LQERDIVPVDASYEVKELYVPENKLHLAKTDAETLPALKINKVDMQWVQVLAEGWATPLNGFMREREYLQCLHFDCLLDGGVINLSVPIVLTATHEDKERLDGCTAFALMYEGRRVAILRNPEFFEHRKEERCARQWGTTCKNHPYIKMVMEQGDWLIGGDLQVLDRVYWNDGLDQYRLTPTELKQKFKDMNADAVFAFQLRNPVHNGHALLMQDTHKQLLERGYRRPVLLLHPLGGWTKDDDVPLMWRMKQHAAVLEEGVLNPETTVVAIFPSPMMYAGPTEVQWHCRARMVAGANFYIVGRDPAGMPHPETGKDLYEPSHGAKVLTMAPGLITLEIVPFRVAAYNKKKKRMDYYDSEHHEDFEFISGTRMRKLAREGQKPPEGFMAPKAWTVLTEYYKSLEKA,soluble
3,MSKNLTITHESTFNGNKVYIDKEGLVVEYLEGIESVLENALEQYARLFIVRVDLNLPTDFRGDDSAVMTRFFRSLKSQVAAYRRRSARLNRKPYRETTIRYVWAKECDTSTSSHYHVALIFDRNIFRSLGDFGEYQQSLANRIRNAWKRSVEAMYSGKEKPAIHFSKQGQYHLLRNSEEFGEVFQSVFYRLSYLAKRRTKHFGKRMNNFGHSHK,not soluble
4,SMSKHHKLARSLRSGPSDHDLKPNAATRDQLNIIVSYPPTKQLTYEEQDLVWKFRYYLTNQEKALTKFLKCVNWDLPQEAKQALELLGKWKPMDVEDSLELLSSHYTNPTVRRYAVARLRQADDEDLLMYLLQLVQALKYENFDDIKNGLEPTKKDSQSSVSENVSNSGINSAEIDSSQIITSPLPSVSSPPPASKTKEVPDGENLEQDLCTFLISRACKNSTLANYLYWYVIVECEDQDTQQRDPKTHEMYLNVMRRFSQALLKGDKSVRVMRSLLAAQQTFVDRLVHLMKAVQRESGNRKKKNERLQALLGDNEKMNLSDVELIPLPLEPQVKIRGIIPETATLFKSALMPAQLFFKTEDGGKYPVIFKHGDDLRQDQLILQIISLMDKLLRKENLDLKLTPYKVLATSTKHGFMQFIQSVPVAEVLDTEGSIQNFFRKYAPSENGPNGISAEVMDTYVKSCAGYCVITYILGVGDRHLDNLLLTKTGKLFHIDFGYILGRDPKPLPPPMKLNKEMVEGMGGTQSEQYQEFRKQCYTAFLHLRRYSNLILNLFSLMVDANIPDIALEPDKTVKKVQDKFRLDLSDEEAVHYMQSLIDESVHALFAAVVEQIH,soluble
5,MHHHHHHAMGIPGHAFSKIKVKQPVVELDGDEMTRIIWDKIKKKLILPYLDVDLKYYDLSVESRDATSDKITQDAAEAIKKYGVGIKCATITPDEARVKEFNLHKMWKSPNGTIRNILGGTVFREPIVIPRIPRLVPRWEKPIIIGRHAHGDQYKATDTLIPGPGSLELVYKPSDPTTAQPQTLKVYDYKGSGVAMAMYNTDESIEGFAHSSFKLAIDKKLNLFLSTKNTILKKYDGRFKDIFQEVYEAQYKSKFEQLGIHYEHRLIDDMVAQMIKSKGGFIMALKNYDGDVQSDIVAQGFGSLGLMTSILVTPDGKTFESEAAHGTVTRHYRKYQKGEETSTNSIASIFAWSRGLLKRGELDNTPALCKFANILESATLNTVQQDGIMTKDLALACGNNERSAYVTTEEFLDAVEKRLQKEIKSIE,soluble
6,MTIPLHTITSFRATFNPFSRSARPCRLLLSLLRNPSTTPASSPTHIDIQVTQLPRHSTQPPEMTVGFRGGKEVKIEVGKKQMKIGDVIEELARVGRSIEREETLKG,not soluble
7,MGSDKIHHHHHHMNNSIITDDEVREFYLNCSSQTIIESLLSLHESLRLYSQNHEILLNRMFKKLDETNADSNISHIFMPVVSKDFSGIKILVNNNNKNFQGVINVIEPETGKLIGCFEAKQITAIRTALASCIGLYKQLSCSHDKLFRFENGTCYLTCFGTGLQAFWHIYIAIKLIMSGIVGESLKLVEINILYHNNMMSLDRLKSLKNLFGSNIKIELNQYQINDISSEGNGAVSNSDIIFGCLPTLEPNLFLRQLLNSKASVEQKHTYISLIGSYKPVMHECDKELIDKFKSDNESACILVDSREHTLLESGELIDSNIAPHNLIEIGELDTLKNTVLNLNEKGCKRTITLCKIVGLAVMDVALAKEFLSLRTKNTENKE,not soluble
8,MEAHNQFLKTFQKERHDMKEAEKDEILLMENSRRFVMFPIKYHEIWAAYKKVEASFWTAEEIELAKDTEDFQKLTDDQKTYIGNLLALSISSDNLVNKYLIENFSAQLQNPEGKSFYGFQIMMENIYSEVYSMMVDAFFKDPKNIPLFKEIANLPEVKHKAAFIERWISNDDSLYAERLVAFAAKEGIFQAGNYASMFWLTDKKIMPGLAMANRNICRDRGAYTDFSCLLFAHLRTKPNPKIIEKIITEAVEIEKEYYSNSLPVEKFGMDLKSIHTYIEFVADGLLQGFGNEKYYNAVNPFEFMEDVATAGKTTFFEKKVSDYQKASDMSKSATPSKEINFDDDF,soluble
9,GSYAEGQRKRRNTIHEFKKSAKTTLIKIDPALKIKTKKVNTADQCANRCTRNKGLPFTCKAFVFDKARKQCLWFPFNSMSSGVKKEFGHEFDLYENKDYIRNCIIGEGESYKGTVSITKSGIKCQPWSSMIPHEHSFLPSSYRGKDLQENYCRNPRGEEGGPWCFTSNPEVRYEVCDIPQCSEVECMTANGESYRGLMDHTESGKICQRWDHQTPHRHKFLPERYPDKGFDDNYCRNPDGQPRPWCYTLDPHTRWEYCAIKTCA,soluble
10,MGSDKIHHHHHHMLNKLCMYLERPELYKQSEINFWDDEYISKQLLKAHLDTNFEGASRNFNFIEDSVNWIVTVANPANYPKLLDLGCGPGLYAEKFAQKGYKVTGIDFSKRSINYAQNRNKETNLNINYLFQSYLNMNYNEEFDLATLIYCDYGALSTENRRLLMEKIYDSLKPGGKLILDVFTINKYNNFEEIKYWEINEDGGFWSNEKYMCLQDNCKYNDYNTLEQTLVITEKDENVFYVWNHYFSKESFLLEVENIGFKSVEFFSNVKGEAYSDDSMTMGLVLQK,not soluble
11,MDVQIFPHRLLGADTTEKLLNRLEDISGVKRMVIHGQRLPPEDHPDRRIISVKGHEFELQVKTGRVLLEIEDEDTIADIKRVCEDLLPFGYDVTPGKYIRTQKTVTDEIKYGEDLDKVPEELIGLTDQNARLSERATIIKRKKEHLEHHHHHH,soluble
12,MGSDKIHHHHHHMTEEINYFWLNCGYNRWNHNEPLVGQTALFESGAHFNPTQGYRAFKKAKAGDQVIFYQVQTDSGLLGIGEIISVQSGAQNKIRVEFKFKETLKPLTTDYLKRSETLDFRMSNMRETLFNQIRESEFELIVSLGKGKSKIPRYFLLAETEAFEPGKNYTIFTHTFNGIKRNGYHFYTQLEVGDNIIIYNKYQNQSVIGIGEVSKHIHEKPPIPGRTNSTAIEIFYEKDIKPISLGHLNKHPKLKNLYFLQENAKQSIASMSQAQYDAILDMSMNNGIKHPFETVKKAELSTQNAEDDSLKPFVLLVVEQKGEGLKAAEELLQKTNANPVITSGHPDFTEDMLYGKYLPNESGALYYREGFITHLMPKKDKSYLVIDNFNRIDVDIFQTYINVLEGYEVTLPRYNKDGSMIKWSKNKDSFYHFNPNWHIVGITYDSIEKIKQKYSSQFLKYTRIVKVNHD,not soluble
13,MMKALILAGGSGERFWPLSTPETPKQFLKLFGNKSLMRWTFERVLEEMDPKDVIVVTHKDYVERTKKELPELPDENIIAEPMKKNTAPACFIGTKLADDDEPVLVLPADHRIPDTKKFWKTVKKALDALEKYDGLFTFGIVPTRPETGYGYIEIGEELEEGVHKVAQFREKPDLETAKKFVESGRFLWNSGMFLWKAREFIEEVKVCEPSIYENLKDVDPRNFEELKKAYEKVPSISVDYAVMEKSKKVRVVKADFEWSDVGNWSSVREIEGYTEESDEVILVDSDRVFVKTHNKPIAVVGLSDVIVIDTPNGILICKEEYAQKVREVVKKLFRTS,soluble
14,MGSDKIHHHHHHMITRIEAYKYRCFNTLDLALEQQHVFAGSNGSGKTTLLDIPALFGDLLNMSDINDAFFKPTNGRERARAESAKEVVHQLRGEYFILALEVSLPPSIIEELLRGASDAWQSKFQKSELRPDTARYEISFRINQDKFQVTEEHLTLFPNNELRPEHGMGLIGVDDFRRSAPWFKVLSRSLGTKVKYQAEYQAGKSSILEFGLRDNQLALAALPADHDLYPAALWLQEFLIQGSHCYEPQWPAMRLAASPRDKHAFKADGSSLPWQVHALQQSDPEGLNEWLELVQMALPSIAKIVAKQRIDDSFCYLEVTYSNGMVVPSSGLSHGTLHILALTIIPYLQNAPKIITLEEPENGIHPKAIDAVLEALKLTSDTQLWLSTHSPVVLANTEVEQIITMRFNQDGATEVLKGHEHPRLKTWKGEVDLGTLFAAGVLE,not soluble
15,MLITKNQAEKWFDNSLGKQFNPDLFYGFQCYDYANMFFMLATGERLQGLYAYNIPFDNKAKIEKYGQIIKNYDSFLPQKLDIVVFPSKYGGGAGHVEIVESANLNTFTSFGQNWNGKGWTNGVAQPGWGPETVTRHVHYYDNPMYFIRLNFPNNLSVGNKAKGIIKQATTKKEAVIKPKKIMLVAGHGYNDPGAVGNGTNERDFIRKYITPNIAKYLRHAGHEVALYGGSSQSQDMYQDTAYGVNVGNKKDYGLYWVKSQGYDIVLEIHLDAAGESASGGHVIISSQFNADTIDKSIQDVIKNNLGQIRGVTPRNDLLNVNVSAEININYRLSELGFITNKNDMDWIKKNYDLYSKLIAGAIHGKPIGGVVASEVKAPVKNEKNPPVPAGYTLDKNNVPYKKEQGNYTVANVKGNNVRDGYSTNSRITGVLPNNTTITYDGAYCINGYRWITYIANSGQRRYIATGEVDIAGNRISSFGKFSAV,soluble
16,GKTVSVFGETCATPVGPAAGPHTQLAQNIVTSWLTGGRFIELKTVQILDRLELEKPCIDAEDECFNTEWSTEFTLLKAWDEYLKAWFALHLLEAMFQPSDSGKSFIFNMSVGYNLEGIKQPPMQQFIDNMMDASDHPKFAQYRDALNKLLQNEAFLARHGLQEKRESLQALPARIPTSMVQGVTLSTMHGCPPHEIEAICRYMLEEKGLNTFVKLNPTLLGYARVREILDVCGFGYIGLKEESFDHDLKLTQALEMLERLMALAKEKSLGFGVKLTNTLGTINNKGALPGEEMYMSGRALFPLSINVAAVLSRAFDGKLPISYSGG,not soluble
17,MGSDKIHHHHHHCSEKTTTEIPETELKNISCSTQLVTHSSAQTRGAAPTTLNENDFVLYAFKKNGEGNFSYEEAKHETSVIDGGVWKYNAAFPVGTYKFIAFYNLDEKNQAALNTTITGISNQTWENILKSIVITHFPSATGQYHEDMNEIFCGKTTDEIDISSGIGGDDNEIKIKLTLERIVSRIDIKFIKVASDDDHIEVPYATGNIFGGTGTTSLTSLIFTSSNVPLKYNLNGENPDYVTGVQCQVTYAAPSFQYGEANADAVKALDYQPFPQNADAINNNMETNIKKGIAKGGAYFMGSYLLPFPSSSQTLNANIQLNKANQERTIKVPGFAVTSNYVSIITVRLKSSTDAGDNNNGNDDEHLFNPKSTFIVEIEKTYVGIHNTNVDVE,not soluble
18,MLANQIKYVILHLTQSIIEYSMANLNCIKAVLAEKGIMSKWLAKTLKKDPATVSKWCNNHSQPDLYTLARIAEVLDVDIHKLICHTKEE,not soluble
19,MATKARVMYDFAAEPGNNELTVTEGEIITVTNPNVGGGWLEGKNNKGEQGLVPTDYVEILPNDGKDPFSC,soluble

# Reference: the DeepSol protein solubility set
